Data taken from the supplement of paper PMC7877785.
± gives the uncertainty stated by the source.

Assay: self-splicing fitness, log relative to wild type (ln ratio); higher = more splicing; Tetrahymena group I intron in knt gene, E. coli kanamycin selection, DiMSum; sequences stand for … in CUCUCU…GGAGGGAAAAGUUAUCAGGCAUGCACCUGGUAGCUAGUCUUUAAACCAAUAGAUUGCAUCGGUUUAAAAGGCAAGACCGUCAAAUUGCGGGAAAGGGGUCAACAGCCGUUCAGUACCAAGUCUCAGGGGAAACUUUGAGAUGGCCUUGCAAAGGGUAUGGUAAUAAGCUGACGGACAUGGUCCUAACCACGCAGCCAAGUCCUAAGUCAACAGAUCUUCUGUUGAUAUGGAUGCAGUUCACAGACUAAAUGUCGGUCGGGGAAGAUGUAUUCUUCUCAUAAGAUAUAGUCGGACCUCUCCUUAAUGGGAGCUAGCGGAUGAAGUGAUGCAACACUGGAGCCGCUGGGAACUAAUUUGUAUGCGAAAGUAUAUUGAUUAGUUUUGGAGUACUCGUGGUCG
How it was run: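 Six replicate transformations of E. coli BL21(DE3) with a pET-22b(+) library were grown overnight at 37°C or 30°C. The library randomised all eight P1ex-region intron nucleotides, the intron lying in the knt kanamycin-resistance gene, and plates were LB agar with or without 25 μg/mL kanamycin plus 100 μg/mL carbenicillin, 50 μM IPTG and 0.2% rhamnose. Pooled colonies were amplicon-sequenced on an Illumina HiSeq 2500, and fitness is the DiMSum error-weighted combination of wild-type-normalised replicate fold changes, kanamycin versus none.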

Row | Sequence | self-splicing fitness (ln) (30 °C) | self-splicing fitness (ln) (37 °C)
1 | GGAAAGCAAUAUUACGCUAG | -2.03 ± 0.22 | -0.857 ± 0.29
2 | GGAAAGCAAUAUUACGGCUU | -1.08 ± 0.091 | -0.393 ± 0.14
3 | GGAAAGCAAUAUUACGGGAA | -2.5 ± 0.36 | -2.92 ± 0.26
4 | GGAAAGCAAUAUUACGGGGG | -3.94 ± 0.26 | -1.45 ± 0.21
5 | GGAAAGCAAUAUUACGGUCG | 0.127 ± 0.092 | -0.296 ± 0.12
6 | GGAAAGCAAUAUUACGGUGC | -3.36 ± 0.27 | -1.62 ± 0.23
7 | GGAAAGCAAUAUUACGUACG | -0.792 ± 0.097 | -0.786 ± 0.11
8 | GGAAAGCAAUAUUACGUCCC | – | -2.61 ± 0.33
9 | GGAAAGCAAUAUUACGUGAA | -1.96 ± 0.11 | -1.45 ± 0.16
10 | GGAAAGCAAUAUUACGUGAG | -1.22 ± 0.047 | -0.225 ± 0.069
11 | GGAAAGCAAUAUUACGUGGA | -3.49 ± 0.28 | -1.96 ± 0.23
12 | GGACAGCAAUAUUACGAAAC | -0.691 ± 0.12 | -0.624 ± 0.2
13 | GGACAGCAAUAUUACGACCA | -1.46 ± 0.13 | -0.645 ± 0.16
14 | GGACAGCAAUAUUACGACCU | -0.544 ± 0.077 | -0.13 ± 0.087
15 | GGACAGCAAUAUUACGAGGG | -3.16 ± 0.14 | -2.28 ± 0.15
16 | GGACAGCAAUAUUACGCAAC | -1.68 ± 0.15 | -0.445 ± 0.18
17 | GGACAGCAAUAUUACGCAUA | -0.761 ± 0.094 | 0.314 ± 0.12
18 | GGACAGCAAUAUUACGCCAG | -2.17 ± 0.22 | -2.07 ± 0.35
19 | GGACAGCAAUAUUACGCUAU | -1.42 ± 0.098 | -0.49 ± 0.11
20 | GGACAGCAAUAUUACGCUGA | -2.21 ± 0.16 | -1.51 ± 0.15
21 | GGACAGCAAUAUUACGGGAA | -2.7 ± 0.1 | -1.04 ± 0.083
22 | GGACAGCAAUAUUACGGGAG | -2.73 ± 0.13 | -1.28 ± 0.15
23 | GGACAGCAAUAUUACGGGCC | – | -1.52 ± 0.29
24 | GGACAGCAAUAUUACGGUAA | -1.34 ± 0.082 | -0.697 ± 0.075
25 | GGACAGCAAUAUUACGGUCA | -0.242 ± 0.046 | 0.817 ± 0.07

Row | Sequence | self-splicing fitness (ln) (30 °C) | self-splicing fitness (ln) (37 °C)
26 | GGACAGCAAUAUUACGUACA | -1.06 ± 0.096 | 0.0922 ± 0.12
27 | GGACAGCAAUAUUACGUCAU | -1.17 ± 0.095 | -0.489 ± 0.1
28 | GGACAGCAAUAUUACGUCUG | -1.1 ± 0.057 | -0.31 ± 0.072
29 | GGACAGCAAUAUUACGUGGA | -1.08 ± 0.076 | -1.29 ± 0.075
30 | GGACAGCAAUAUUACGUGGC | -3.02 ± 0.26 | -0.384 ± 0.16
31 | GGACAGCAAUAUUACGUGUC | -3.52 ± 0.28 | -2.68 ± 0.23
32 | GGACAGCAAUAUUACGUUAA | -0.204 ± 0.07 | 0.00356 ± 0.08
33 | GGAGAGCAAUAUUACGAAAA | – | -0.772 ± 0.31
34 | GGAGAGCAAUAUUACGAGAU | -2.5 ± 0.36 | -2.14 ± 0.34
35 | GGAGAGCAAUAUUACGCACG | – | -0.798 ± 0.47
36 | GGAGAGCAAUAUUACGCGAG | -2.31 ± 0.48 | –
37 | GGAGAGCAAUAUUACGCGAU | -2.76 ± 0.28 | -1.64 ± 0.37
38 | GGAGAGCAAUAUUACGCGUU | -2.46 ± 0.28 | -1.82 ± 0.32
39 | GGAGAGCAAUAUUACGGACG | – | -1.27 ± 0.31
40 | GGAGAGCAAUAUUACGGCAC | -1.39 ± 0.37 | –
41 | GGAGAGCAAUAUUACGGGAG | -4.1 ± 0.21 | -2.37 ± 0.23
42 | GGAGAGCAAUAUUACGGUGU | -3.55 ± 0.28 | -2.38 ± 0.18
43 | GGAGAGCAAUAUUACGUACG | -2.56 ± 0.43 | –
44 | GGAGAGCAAUAUUACGUCAG | -3.34 ± 0.22 | -1.75 ± 0.21
45 | GGAGAGCAAUAUUACGUCUU | -4.08 ± 0.28 | -3.23 ± 0.38
46 | GGAGAGCAAUAUUACGUUCG | -1.27 ± 0.19 | -0.35 ± 0.23
47 | GGAGAGCAAUAUUACGUUGG | -4.09 ± 0.47 | -2.64 ± 0.36
48 | GGAUAGCAAUAUUACGAAGA | -2.93 ± 0.34 | -1.82 ± 0.31
49 | GGAUAGCAAUAUUACGAAGG | -2.12 ± 0.24 | -2.02 ± 0.26
50 | GGAUAGCAAUAUUACGACAC | -0.106 ± 0.11 | 0.407 ± 0.14

Row | Sequence | self-splicing fitness (ln) (30 °C) | self-splicing fitness (ln) (37 °C)
51 | GGAUAGCAAUAUUACGAGCU | -0.723 ± 0.19 | -0.744 ± 0.14
52 | GGAUAGCAAUAUUACGAUCA | 0.409 ± 0.12 | 0.227 ± 0.12
53 | GGAUAGCAAUAUUACGCAGA | -2.53 ± 0.25 | -1.58 ± 0.21
54 | GGAUAGCAAUAUUACGCCCG | -1.49 ± 0.24 | -0.949 ± 0.27
55 | GGAUAGCAAUAUUACGCCUU | -0.526 ± 0.11 | 0.31 ± 0.1
56 | GGAUAGCAAUAUUACGCGAA | -1.69 ± 0.29 | -1.41 ± 0.42
57 | GGAUAGCAAUAUUACGCGAC | -3.69 ± 0.36 | -1.92 ± 0.38
58 | GGAUAGCAAUAUUACGCUAU | – | -2.05 ± 0.31
59 | GGAUAGCAAUAUUACGCUGU | -1.65 ± 0.25 | -2.68 ± 0.38
60 | GGAUAGCAAUAUUACGGAUC | -0.869 ± 0.084 | -0.269 ± 0.11
61 | GGAUAGCAAUAUUACGGCGC | 0.356 ± 0.34 | 0.121 ± 0.33
62 | GGAUAGCAAUAUUACGGCUC | -0.0157 ± 0.31 | -1.59 ± 0.35
63 | GGAUAGCAAUAUUACGGCUU | -0.686 ± 0.095 | -0.309 ± 0.11
64 | GGAUAGCAAUAUUACGGGCG | -1.69 ± 0.13 | -0.955 ± 0.094
65 | GGAUAGCAAUAUUACGGUCG | -0.0227 ± 0.077 | 0.199 ± 0.094
66 | GGAUAGCAAUAUUACGGUUU | -1.22 ± 0.093 | -0.329 ± 0.11
67 | GGAUAGCAAUAUUACGUACC | -2.37 ± 0.26 | -0.601 ± 0.25
68 | GGAUAGCAAUAUUACGUAGG | -2.82 ± 0.19 | -1.52 ± 0.18
69 | GGAUAGCAAUAUUACGUAGU | -3.21 ± 0.15 | -1.67 ± 0.15
70 | GGAUAGCAAUAUUACGUCCG | -0.616 ± 0.17 | -0.972 ± 0.2
71 | GGAUAGCAAUAUUACGUCCU | -3.13 ± 0.19 | -1.84 ± 0.24
72 | GGAUAGCAAUAUUACGUCGC | -1.97 ± 0.17 | -1.42 ± 0.21
73 | GGAUAGCAAUAUUACGUCGU | -0.886 ± 0.1 | -0.841 ± 0.12
74 | GGAUAGCAAUAUUACGUCUC | -2.52 ± 0.25 | -2.16 ± 0.46
75 | GGAUAGCAAUAUUACGUCUG | -0.225 ± 0.061 | -0.0327 ± 0.088

Row | Sequence | self-splicing fitness (ln) (30 °C) | self-splicing fitness (ln) (37 °C)
76 | GGAUAGCAAUAUUACGUGGC | -2.56 ± 0.25 | –
77 | GGAUAGCAAUAUUACGUUAG | – | -2 ± 0.23
78 | GGAUAGCAAUAUUACGUUUC | – | -1.84 ± 0.41
79 | GGCAAGCAAUAUUACGAAUU | -0.859 ± 0.074 | 0.0425 ± 0.081
80 | GGCAAGCAAUAUUACGACUG | -1.02 ± 0.12 | -0.532 ± 0.17
81 | GGCAAGCAAUAUUACGAGAC | -0.681 ± 0.14 | -1.2 ± 0.23
82 | GGCAAGCAAUAUUACGAGGA | -3.3 ± 0.42 | -1.77 ± 0.24
83 | GGCAAGCAAUAUUACGAUGA | -1.07 ± 0.11 | -0.765 ± 0.13
84 | GGCAAGCAAUAUUACGAUGU | -2.19 ± 0.12 | -1.44 ± 0.13
85 | GGCAAGCAAUAUUACGCACG | -1 ± 0.13 | 0.171 ± 0.24
86 | GGCAAGCAAUAUUACGCCAA | -1.93 ± 0.24 | -1.36 ± 0.21
87 | GGCAAGCAAUAUUACGCGUC | -3.66 ± 0.34 | -2.74 ± 0.36
88 | GGCAAGCAAUAUUACGCGUG | -1.95 ± 0.088 | -2.11 ± 0.095
89 | GGCAAGCAAUAUUACGCUAU | -0.0842 ± 0.13 | -1.13 ± 0.11
90 | GGCAAGCAAUAUUACGGAGA | -2.37 ± 0.24 | -2.22 ± 0.27
91 | GGCAAGCAAUAUUACGGGCA | -0.0236 ± 0.092 | 0.138 ± 0.1
92 | GGCAAGCAAUAUUACGGGUU | -0.709 ± 0.077 | -0.607 ± 0.08
93 | GGCAAGCAAUAUUACGGUCC | -2.95 ± 0.15 | -2.1 ± 0.17
94 | GGCAAGCAAUAUUACGGUGU | -1.2 ± 0.059 | -0.54 ± 0.09
95 | GGCAAGCAAUAUUACGUAAU | 0.0253 ± 0.063 | 0.562 ± 0.074
96 | GGCAAGCAAUAUUACGUAGG | -1.09 ± 0.061 | -0.937 ± 0.088
97 | GGCAAGCAAUAUUACGUAUG | -2 ± 0.092 | -1.74 ± 0.1
98 | GGCAAGCAAUAUUACGUCAU | -1.32 ± 0.072 | -0.111 ± 0.083
99 | GGCAAGCAAUAUUACGUGGA | -1.28 ± 0.077 | -0.277 ± 0.073
